Data reported in patent US20230285582A1 (published 2023).
Positions count from the first letter of the chain named. In names and notes the source's numbering stands.

T1: cynomolgus monkey (Macaca fascicularis) TfR1 (cynomolgus monkey (Macaca fascicularis), UniProt Q5RDH6 89-760 (Pongo abelii entry), limits assumed)
T1 construct: also called cTfR1; cyTfR1
T1 chain: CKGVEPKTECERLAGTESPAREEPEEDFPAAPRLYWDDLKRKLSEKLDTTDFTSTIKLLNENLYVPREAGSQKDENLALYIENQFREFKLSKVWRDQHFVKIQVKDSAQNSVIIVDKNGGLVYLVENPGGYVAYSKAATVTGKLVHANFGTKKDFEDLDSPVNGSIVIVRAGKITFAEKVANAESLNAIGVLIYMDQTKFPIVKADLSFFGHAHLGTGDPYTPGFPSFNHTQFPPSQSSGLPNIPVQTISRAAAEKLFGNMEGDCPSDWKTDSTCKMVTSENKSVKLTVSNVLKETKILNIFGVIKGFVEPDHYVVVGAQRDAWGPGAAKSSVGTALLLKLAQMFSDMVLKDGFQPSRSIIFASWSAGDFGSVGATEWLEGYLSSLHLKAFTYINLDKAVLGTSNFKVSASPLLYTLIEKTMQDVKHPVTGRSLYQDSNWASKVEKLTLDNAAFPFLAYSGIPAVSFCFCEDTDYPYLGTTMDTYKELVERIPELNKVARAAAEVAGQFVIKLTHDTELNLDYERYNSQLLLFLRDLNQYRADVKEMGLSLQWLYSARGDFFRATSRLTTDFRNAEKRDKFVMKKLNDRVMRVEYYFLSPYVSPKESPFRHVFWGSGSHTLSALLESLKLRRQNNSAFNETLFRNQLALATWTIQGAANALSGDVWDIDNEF

B1: humanized anti-TfR Fab 3M12 VH3/Vk2 (Fab, V domains shown)
VH: QVQLQESGPGLVKPSQTLSLTCSVTGYSITSGYYWNWIRQPPGKGLEWMGYITFDGANNYNPSLKNRVSISRDTSKNQFSLKLSSVTAEDTATYYCTRSSYDYDVLDYWGQGTTVTVSS
VL: DIQMTQSPSSLSASVGDRVTITCRASQDISNFLNWYQQKPGQPVKLLIYYTSRLHSGVPSRFSGSGSGTDFTLTISSLQPEDFATYFCQQGHTLPYTFGQGTKLEIKR
B2: humanized anti-TfR Fab 3M12 VH3/Vk3 (Fab, V domains shown)
VH: B1 VH
VL: B1 VL with F87Y
B3: humanized anti-TfR Fab 3M12 VH4/Vk2 (Fab, V domains shown)
VH: B1 VH with S23T, M49I
VL: B1 VL
B4: humanized anti-TfR Fab 5H12 VH5 (C33Y)/Vk4 (Fab, V domains shown)
VH: QVQLVQSGAEVKKPGASVKVSCKASGYSFTDYYINWVRQAPGQGLEWMGWIYPGSGNTRYSERFKGRVTITRDTSASTAYMELSSLRSEDTAVYYCAREDYYPYHGMDYWGQGTLVTVSS
VL: DIVMTQSPDSLAVSLGERATINCRASESVDGYDNSFMHWYQQKPGQPPKLLIFRASNLESGVPDRFSGSGSGTDFTLTISSLQAEDVAVYYCQQSSEDPWTFGQGTKLEIKR
B5: humanized anti-TfR Fab 5H12 VH5 (C33D)/Vk4 (Fab, V domains shown)
VH: B4 VH with Y33D
VL: B4 VL
B6: humanized anti-TfR Fab 5H12 VH5 (C33Y)/Vk3 (Fab, V domains shown)
VH: B4 VH
VL: B4 VL with M4L, G72R
B7: humanized anti-TfR Fab 3A4 VH3 (N54T)/Vk4 (Fab, V domains shown)
VH: EVQLVQSGSELKKPGASVKVSCTASGFNIKDDYMYWVRQPPGKGLEWIGWIDPETGDTEYASKFQDRVTVTADTSTNTAYMELSSLRSEDTAVYYCTLWLRRGLDYWGQGTLVTVSS
VL: DIVMTQSPLSLPVTPGEPASISCRSSKSLLHSNGYTYLFWFQQRPGQSPRLLIYRMSNLASGVPDRFSGSGSGTDFTLKISRVEAEDVGVYYCMQHLEYPFTFGGGTKVEIKR
B8: humanized anti-TfR Fab 3A4 VH3/Vk4 (Fab, V domains shown)
VH: B7 VH with T55N
VL: B7 VL
B9: humanized anti-TfR Fab 3A4 VH3 (N54S)/Vk4 (Fab, V domains shown)
VH: B7 VH with T55S
VL: B7 VL
B10: conjugate of humanized anti-TfR Fab 3M12 VH3/Vk2 with DMPK-targeting oligonucleotide ASO300 (Fab, V domains shown)
VH: B1 VH
VL: B1 VL
modifications: ASO300 oligonucleotide attached through a cleavable Val-Cit linker (Formula (C)); residue and chain not stated
notes: also called 3M12 (VH3/Vk2) conjugate; DMPK oligo conjugate
B11: conjugate of humanized anti-TfR Fab 3M12 VH4/Vk3 with DMPK-targeting oligonucleotide ASO300 (Fab, V domains shown)
VH: B1 VH with S23T, M49I
VL: B1 VL with F87Y
modifications: ASO300 oligonucleotide attached through a cleavable Val-Cit linker (Formula (C)); residue and chain not stated
notes: also called 3M12 (VH4/Vk3) conjugate; DMPK oligo conjugate
B12: conjugate of humanized anti-TfR Fab 5H12 VH5 (C33Y)/Vk4 with DMPK-targeting oligonucleotide ASO300 (Fab, V domains shown)
VH: B4 VH
VL: B4 VL
modifications: ASO300 oligonucleotide attached through a cleavable Val-Cit linker (Formula (C)); residue and chain not stated
notes: also called 5H12 (VH5-C33Y/Vk4) conjugate; DMPK oligo conjugate
B13: conjugate of humanized anti-TfR Fab 5H12 VH5 (C33D)/Vk4 with DMPK-targeting oligonucleotide ASO300 (Fab, V domains shown)
VH: B4 VH with Y33D
VL: B4 VL
modifications: ASO300 oligonucleotide attached through a cleavable Val-Cit linker (Formula (C)); residue and chain not stated
notes: also called 5H12 (VH5-C33D/Vk4) conjugate; DMPK oligo conjugate
B14: conjugate of humanized anti-TfR Fab 3A4 VH3 (N54T)/Vk4 with DMPK-targeting oligonucleotide ASO300 (Fab, V domains shown)
VH: B7 VH
VL: B7 VL
modifications: ASO300 oligonucleotide attached through a cleavable Val-Cit linker (Formula (C)); residue and chain not stated
notes: also called 3A4 (VH3-N54T/Vk4) conjugate; DMPK oligo conjugate
B15: conjugate of humanized anti-TfR Fab 3A4 VH3/Vk4 with DMPK-targeting oligonucleotide ASO300 (Fab, V domains shown)
VH: B7 VH with T55N
VL: B7 VL
modifications: ASO300 oligonucleotide attached through a cleavable Val-Cit linker (Formula (C)); residue and chain not stated
notes: also called 3A4 (VH3/Vk4) conjugate; DMPK oligo conjugate
B16: conjugate of humanized anti-TfR Fab 3A4 VH3 (N54S)/Vk4 with DMPK-targeting oligonucleotide ASO300 (Fab, V domains shown)
VH: B7 VH with T55S
VL: B7 VL
modifications: ASO300 oligonucleotide attached through a cleavable Val-Cit linker (Formula (C)); residue and chain not stated
notes: also called 3A4 (VH3-N54S/Vk4) conjugate; DMPK oligo conjugate
B17: anti-TfR Fab 3M12 VH4/Vk3 (Fab, V domains shown)
VH: B1 VH with S23T, M49I
VL: B1 VL with F87Y
B18: conjugate of humanized anti-TfR Fab 5H12 VH5 (C33Y)/Vk3 with DMPK-targeting oligonucleotide ASO300 (Fab, V domains shown)
VH: B4 VH
VL: B4 VL with M4L, G72R
modifications: ASO300 oligonucleotide attached through a cleavable Val-Cit linker (Formula (C)); residue and chain not stated
notes: also called 5H12 (VH5-C33Y/Vk3) conjugate

Biological target: T1, cynomolgus monkey (Macaca fascicularis) …
Assay: ELISA, d0
Experimental: (§1) To measure binding of humanized anti-TfR antibodies to TfR1, ELISAs were conducted. High binding, black, flat bottom, 96 well plates (Corning# 3925) were first coated with 100 µL/well of recombinant huTfR1 at 1 µg/mL in PBS and incubated at 4° C. overnight. Wells were emptied and residual liquid was removed. Blocking was conducted by adding 200 µL of 1%BSA (w/w) in PBS to each well. Blocking was allowed to proceed for 2 hours at room temperature on a shaker at 300 rpm. After blocking, liquid was removed and wells were washed three times with 300 µL of TBST. Anti-TfR1 antibodies were then added in 0.5% BSA/TBST in triplicate in an 8 point serial dilution (dilution range 5 µg/mL- 5 ng/mL). A positive control and isotype controls were also included on the ELISA plate. The plate was incubated at room temperature on an orbital shaker for 60 minutes at 300 rpm, and the plate was washed three times with 300 µL of TBST. Anti-(H+L)IgG-A488 (1:500) (Invitrogen #A11013) was diluted in 0.5% BSA in TBST, and 100 µL was added to each well. The plate was then allowed to incubate at room temperature for 60 minutes at 300 rpm on orbital shaker. The liquid was removed and the plate was washed four times with 300 µL of TBST. Absorbance was then measured at 495 nm excitation and […] (with a 15 nm bandwidth) on a plate reader. Data was recorded and analyzed for EC₅₀. […] ELISA measurements were conducted using cynomolgus monkey (Macaca fascicularis) TfR1 (cTfR1) according to the same protocol described above for hTfR1, and results are shown in FIGS. 9B, 9D, and 9F.

| EC50 [nM] | Binder |
| --- | --- |
| 9.9 | B1 |
| 4.7 | B2 |
| 1.4 | B3 |
| 3.3 | B4 |
| 3.5 | B5 |
| 2.1 | B6 |
| 156 | B7 |
| 122 | B8 |
| 398 | B9 |

Biological target: T1, cynomolgus monkey (Macaca fascicularis) …
Assay: ELISA, Fab-ASO300 conjugate

| EC50 [nM] | Binder |
| --- | --- |
| 2.26 | B10 |
| 1.85 | B11 |
| 13.9 | B12 |
| 10.2 | B13 |
| 5.12 | B14 |
| 7.59 | B15 |
| 4.1 | B16 |

Biological target: T1, cynomolgus monkey (Macaca fascicularis) …
Assay: ELISA, d9 (after 9 days at 40 C)

| EC50 [nM] | Binder |
| --- | --- |
| 19.5 | B1 |
| 15.6 | B2 |
| 5.01 | B3 |
| 16.4 | B17 |
| 0.26 | B4 |
| 0.63 | B5 |
| 0.69 | B6 |
| 128 | B7 |
| 878 | B8 |
| 248 | B9 |

Biological target: T1, cynomolgus monkey (Macaca fascicularis) …
Assay: ELISA, coated recombinant TfR1, unconjugated Fab
Experimental: as §1

| EC50 [nM] | Binder |
| --- | --- |
| 9.9 | B1 |
| 4.7 | B2 |
| 1.4 | B3 |
| 3.3 | B4 |
| 3.5 | B5 |
| 2.1 | B6 |
| 156 | B7 |
| 122 | B8 |
| 398 | B9 |

Biological target: T1, cynomolgus monkey (Macaca fascicularis) …
Assay: ELISA, coated recombinant TfR1, Fab-ASO300 conjugate

| EC50 [nM] | Binder |
| --- | --- |
| 2.9 | B10 |
| 2.1 | B11 |
| 3.3 | B12 |
| 10.2 | B13 |
| 2.3 | B18 |
| 4.7 | B14 |
| 7.6 | B15 |
| 7.8 | B16 |
